Data on 19 variants can be found in the supplement of paper PMC7125110.

In general, kcat refers to the number of substrate molecules converted per active site and unit of time at saturation. Usually KM stands for the concentration of substrate that gives half-maximal velocity.

To fix the notation:
B1: glmS ribozyme (parent)
chain: AUAAAAGCGCCAGAACUACAGAAAUGUAGUUGACGAGGAGGAGGUUUAUCGAAUUUUCGGCGGAUGCCUCCAAA

Holding throughout (conditions): with glucosamine-6-phosphate
In data set [1] the parent is B1. The data set can be described thus: kcat; higher = faster cleavage; RNA array. The method, boiled down:
(§1)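 Over ~14 h at 37 °C, tiles were imaged as glucosamine-6-phosphate (40 μM to 10 mM) in HEPES/KCl/Mg(OAc)2 buffer flowed across sequenced MiSeq chips. The chips carried barcoded ribozyme variants transcribed in situ by E. coli RNA polymerase and tracked with a hybridised Cy3 probe. After normalisation to baseline and to non-cleaving reference variants, one- or two-exponential decay fits of per-tile medians gave kobs. kcat and KM followed from weighted Michaelis–Menten fits across concentrations.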

In data set [2] the parent is B1. The data set can be described thus: self-cleavage kobs at 2500 uM GlcN6P; higher = faster cleavage; RNA array. The method, boiled down:
as §1

The variants in data set [3] derive from B1. The data set can be described thus: self-cleavage kobs at 10000 uM GlcN6P; higher = faster cleavage; RNA array. The method, boiled down:
as §1

In data set [4] the parent is B1. The data set can be described thus: self-cleavage kobs at 160 uM GlcN6P; higher = faster cleavage; RNA array. The method, boiled down:
as §1

Variants of B1 are the subject of data set [5]. The data set can be described thus: KM; higher = weaker cofactor use; RNA array. The method, boiled down:
as §1

Data set [6] covers variants of B1. The data set can be described thus: self-cleavage kobs at 40 uM GlcN6P; higher = faster cleavage; RNA array. The method, boiled down:
as §1

The variants in data set [7] derive from B1. The data set can be described thus: self-cleavage kobs at 640 uM GlcN6P; higher = faster cleavage; RNA array. The method, boiled down:
as §1

± gives the standard error. For part of these data: Fewer inactive variants are shown than the library holds.

Regarding G37A U45G C70G, in the data set with glucosamine-6-phosphate [1], the turnover number (kcat) was 1.07e-05 ± 4e-06 s⁻¹.
Turning to U57G C67U, the turnover number (kcat) with glucosamine-6-phosphate [1] stood at 3.05e-05 ± 1e-05 s⁻¹. Also, the “self-cleavage kobs at 2500 uM GlcN6P” value in the data set with glucosamine-6-phosphate [2] amounted to 4.91e-05 ± 1.5e-05 s⁻¹. The “self-cleavage kobs at 10000 uM GlcN6P” value with glucosamine-6-phosphate [3] turned out to be 2.19e-05 ± 1e-05 s⁻¹.
As for G37C C50U, the kcat with glucosamine-6-phosphate [1] is under 1e-05 s⁻¹. Further, in the data set with glucosamine-6-phosphate [3], the “self-cleavage kobs at 10000 uM GlcN6P” value is under 1e-05 s⁻¹.
For U55G G62U, the kcat with glucosamine-6-phosphate [1] is under 1e-05 s⁻¹. The “self-cleavage kobs at 160 uM GlcN6P” value with glucosamine-6-phosphate [4] is under 1e-05 s⁻¹. The “self-cleavage kobs at 10000 uM GlcN6P” value in the data set with glucosamine-6-phosphate [3] was under 1e-05 s⁻¹.
With A12C G37A, the kcat in the data set with glucosamine-6-phosphate [1] is 0.00391 ± 0.0011 s⁻¹. In addition, in the data set with glucosamine-6-phosphate [5], the KM was 2210 ± 860 µM. The “self-cleavage kobs at 40 uM GlcN6P” value in the data set with glucosamine-6-phosphate [6] came out at 8.92e-05 ± 1.1e-05 s⁻¹. The “self-cleavage kobs at 160 uM GlcN6P” value in the data set with glucosamine-6-phosphate [4] amounted to 0.000248 ± 4e-05 s⁻¹. Also, in the data set with glucosamine-6-phosphate [7], the “self-cleavage kobs at 640 uM GlcN6P” value amounted to 0.000756 ± 0.00011 s⁻¹. In addition, the “self-cleavage kobs at 2500 uM GlcN6P” value with glucosamine-6-phosphate [2] was determined as 0.00182 ± 0.00028 s⁻¹. The “self-cleavage kobs at 10000 uM GlcN6P” value in the data set with glucosamine-6-phosphate [3] was 0.00402 ± 0.00063 s⁻¹.
Consider G51U C67G, for which the catalytic constant (kcat) in the data set with glucosamine-6-phosphate [1] was under 1e-05 s⁻¹.
Regarding G29U C61A, the catalytic constant (kcat) with glucosamine-6-phosphate [1] came to 1.26e-05 ± 2.3e-06 s⁻¹. The “self-cleavage kobs at 40 uM GlcN6P” value in the data set with glucosamine-6-phosphate [6] was under 1e-05 s⁻¹.
A42C G60C: in the data set with glucosamine-6-phosphate [1], the turnover number (kcat) was under 1e-05 s⁻¹. For the same variant, the “self-cleavage kobs at 40 uM GlcN6P” value with glucosamine-6-phosphate [6] is under 1e-05 s⁻¹. For the same variant, in the data set with glucosamine-6-phosphate [4], the “self-cleavage kobs at 160 uM GlcN6P” value is under 1e-05 s⁻¹. Also, in the data set with glucosamine-6-phosphate [7], the “self-cleavage kobs at 640 uM GlcN6P” value is under 1e-05 s⁻¹.
For the variant G32A U55A C68A, the kcat in the data set with glucosamine-6-phosphate [1] came to 3.25e-05 ± 3.5e-06 s⁻¹.
Consider C10A C71U, for which the kcat with glucosamine-6-phosphate [1] is under 1e-05 s⁻¹.
For the variant A15U U49A C67A, in the data set with glucosamine-6-phosphate [1], the catalytic constant (kcat) was determined as 2.42e-05 ± 8.1e-06 s⁻¹.
With G41U U56G, the catalytic constant (kcat) with glucosamine-6-phosphate [1] is 0.000847 ± 0.00013 s⁻¹. The Michaelis constant (KM) with glucosamine-6-phosphate [5] worked out at 2280 ± 590 µM. Further, the “self-cleavage kobs at 40 uM GlcN6P” value with glucosamine-6-phosphate [6] turned out to be 2.66e-05 ± 1.2e-05 s⁻¹. In addition, the “self-cleavage kobs at 160 uM GlcN6P” value with glucosamine-6-phosphate [4] worked out at 4.73e-05 ± 1.1e-05 s⁻¹. Further, the “self-cleavage kobs at 640 uM GlcN6P” value with glucosamine-6-phosphate [7] came out at 0.000185 ± 3.5e-05 s⁻¹. Further, in the data set with glucosamine-6-phosphate [2], the “self-cleavage kobs at 2500 uM GlcN6P” value came to 0.000491 ± 5.8e-05 s⁻¹. For the same variant, the “self-cleavage kobs at 10000 uM GlcN6P” value with glucosamine-6-phosphate [3] came to 0.00064 ± 9.6e-05 s⁻¹.
As for A15U U65C, the kcat with glucosamine-6-phosphate [1] turned out to be 5.03e-05 ± 3.5e-06 s⁻¹. Besides, the “self-cleavage kobs at 640 uM GlcN6P” value in the data set with glucosamine-6-phosphate [7] came to 4.42e-05 ± 1.2e-05 s⁻¹. For the same variant, in the data set with glucosamine-6-phosphate [2], the “self-cleavage kobs at 2500 uM GlcN6P” value stood at 4.8e-05 ± 8.3e-06 s⁻¹. Moreover, in the data set with glucosamine-6-phosphate [3], the “self-cleavage kobs at 10000 uM GlcN6P” value came out at 4.61e-05 ± 1.5e-05 s⁻¹.
As for A39G C70G, the turnover number (kcat) with glucosamine-6-phosphate [1] was determined as 0.000172 ± 3.8e-05 s⁻¹. The “self-cleavage kobs at 40 uM GlcN6P” value in the data set with glucosamine-6-phosphate [6] was 0.000112 ± 1.6e-05 s⁻¹. Moreover, the “self-cleavage kobs at 160 uM GlcN6P” value in the data set with glucosamine-6-phosphate [4] turned out to be 0.000143 ± 2.3e-05 s⁻¹. The “self-cleavage kobs at 640 uM GlcN6P” value in the data set with glucosamine-6-phosphate [7] came out at 0.000314 ± 4.7e-05 s⁻¹. In the data set with glucosamine-6-phosphate [2], the “self-cleavage kobs at 2500 uM GlcN6P” value amounted to 0.000245 ± 3.2e-05 s⁻¹. The “self-cleavage kobs at 10000 uM GlcN6P” value in the data set with glucosamine-6-phosphate [3] worked out at 0.000132 ± 1.8e-05 s⁻¹.
Consider G40U U65A, for which the catalytic constant (kcat) with glucosamine-6-phosphate [1] amounted to 0.000363 ± 4.2e-05 s⁻¹. Also, the Michaelis constant (KM) in the data set with glucosamine-6-phosphate [5] was determined as 735 ± 170 µM. The “self-cleavage kobs at 160 uM GlcN6P” value in the data set with glucosamine-6-phosphate [4] was 6.26e-05 ± 1.5e-05 s⁻¹. The “self-cleavage kobs at 640 uM GlcN6P” value with glucosamine-6-phosphate [7] was 0.000191 ± 3.7e-05 s⁻¹. Besides, the “self-cleavage kobs at 2500 uM GlcN6P” value with glucosamine-6-phosphate [2] stood at 0.000235 ± 6.9e-05 s⁻¹. Besides, the “self-cleavage kobs at 10000 uM GlcN6P” value in the data set with glucosamine-6-phosphate [3] came out at 0.000352 ± 7e-05 s⁻¹.
For the variant C67U C68G, the catalytic constant (kcat) with glucosamine-6-phosphate [1] came out at 2.52e-05 ± 6.7e-06 s⁻¹. Also, the “self-cleavage kobs at 640 uM GlcN6P” value with glucosamine-6-phosphate [7] was determined as 3.49e-05 ± 1.2e-05 s⁻¹. For the same variant, the “self-cleavage kobs at 2500 uM GlcN6P” value with glucosamine-6-phosphate [2] came to 2.57e-05 ± 1.2e-05 s⁻¹.
In the case of C16U U65G C67G, the turnover number (kcat) with glucosamine-6-phosphate [1] amounted to 0.0015 ± 8.8e-05 s⁻¹. Also, the Michaelis-Menten constant (KM) in the data set with glucosamine-6-phosphate [5] was 1420 ± 160 µM. In addition, in the data set with glucosamine-6-phosphate [6], the “self-cleavage kobs at 40 uM GlcN6P” value stood at 3.76e-05 ± 1.7e-05 s⁻¹. In addition, the “self-cleavage kobs at 640 uM GlcN6P” value with glucosamine-6-phosphate [7] amounted to 0.000493 ± 0.00013 s⁻¹. The “self-cleavage kobs at 2500 uM GlcN6P” value with glucosamine-6-phosphate [2] turned out to be 0.000981 ± 0.00024 s⁻¹. Also, the “self-cleavage kobs at 10000 uM GlcN6P” value in the data set with glucosamine-6-phosphate [3] was found to be 0.00128 ± 0.00032 s⁻¹.
Turning to A14U A15G, the kcat with glucosamine-6-phosphate [1] came to 0.0123 ± 0.0018 s⁻¹. Further, in the data set with glucosamine-6-phosphate [5], the KM was 2410 ± 520 µM. For the same variant, the “self-cleavage kobs at 40 uM GlcN6P” value in the data set with glucosamine-6-phosphate [6] worked out at 0.000225 ± 4e-05 s⁻¹. Besides, in the data set with glucosamine-6-phosphate [4], the “self-cleavage kobs at 160 uM GlcN6P” value is 0.000672 ± 0.00015 s⁻¹. For the same variant, in the data set with glucosamine-6-phosphate [7], the “self-cleavage kobs at 640 uM GlcN6P” value amounted to 0.00234 ± 0.00043 s⁻¹. Moreover, the “self-cleavage kobs at 2500 uM GlcN6P” value in the data set with glucosamine-6-phosphate [2] was 0.0077 ± 0.0012 s⁻¹. Besides, the “self-cleavage kobs at 10000 uM GlcN6P” value with glucosamine-6-phosphate [3] worked out at 0.00944 ± 0.0012 s⁻¹.
Regarding C11U C71U, in the data set with glucosamine-6-phosphate [1], the kcat amounted to 0.00111 ± 0.0002 s⁻¹. In addition, the KM with glucosamine-6-phosphate [5] turned out to be 1030 ± 320 µM. In addition, in the data set with glucosamine-6-phosphate [6], the “self-cleavage kobs at 40 uM GlcN6P” value was 0.000116 ± 4.3e-05 s⁻¹. Besides, in the data set with glucosamine-6-phosphate [4], the “self-cleavage kobs at 160 uM GlcN6P” value was 0.000143 ± 2.6e-05 s⁻¹. Moreover, in the data set with glucosamine-6-phosphate [7], the “self-cleavage kobs at 640 uM GlcN6P” value amounted to 0.000418 ± 7.1e-05 s⁻¹. In addition, the “self-cleavage kobs at 2500 uM GlcN6P” value with glucosamine-6-phosphate [2] was 0.000796 ± 0.00014 s⁻¹. In addition, the “self-cleavage kobs at 10000 uM GlcN6P” value in the data set with glucosamine-6-phosphate [3] amounted to 0.00102 ± 0.0002 s⁻¹.
